Measurements taken from paper PMC9781609 (Pharmaceutics, 2022).

Legend:
[1] = endogenous peptide; cited from earlier work
Procedure: Neurotensin receptor imaging has emerged as a promising target for imaging and therapy. The endogenous neurotensin peptide has a short half-life in blood (<6 min), limiting its direct radiolabeling and use. Most developments in neurotensin receptor imaging have been focused on increasing serum stability and improving specificity for NTSR1 [1]. Previously, neurotensin receptor binding peptides have been investigated as imaging and therapeutic agents when radiolabeled with technetium-99m, indium-111, gallium-68, copper-64, actinium-225, and leutetium-177 [10, 11, 12, 13]. Specif ...

[2] = in vivo; details: male, athymic nude, mouse, total radioactivity
Procedure: All animal procedures were approved by the University of Alabama at Birmingham IACUC, animal protocol number IACUC-22618. Male athymic nude mice (Charles River, Wilmington, MA, USA) were allowed to acclimate for at least 72 h before any procedures were performed. For tumor implantation, mice were subcutaneously injected with 300,000 HT29 cells 3 weeks before imaging. […] Mice were imaged on a GNEXT microPET/CT (Sophie, Springfield, VA, USA). After the last imaging timepoint, mice were euthanized and organs were taken for biodistribution. Organ weights and radioactive counting were collected on a Hidex gamma counter (Lablogic, Clair-Mel City, FL, USA). Images were processed and SUVs were calculated using VivoQuant software (Invicro, Boston, MA, USA).

With “neurotensin peptide: 13-amino-acid peptide which binds to neurotensin receptors 1–3” as the molecule, how does the half-life in blood [1] read?
Its half-life in blood is under 6 min.

What does the source list for `CC(=O)N[C@@H](CCCCNC(=O)CN1CCN(CC(=O)O)CCN(CC(=O)O)CC1)C(=O)N1CCC[C@H]1C(=O)N(C)[C@@H](CCCNC(=N)N)C(=O)N[C@@H](CCCNC(=N)N)C(=O)N1CCC[C@H]1C(=O)N[C@@H](Cc1ccc(O)cc1)C(=O)N[C@H](C(=O)N[C@@H](CC(C)C)C(=O)O)C(C)(C)C` [[^64Cu] Cu-NOTA-NT-20.3, metal not drawn]?
SUV at 1 h ([2]; liver SUV): 0.123 ± 0.029 SUV; SUV at 4 h ([2]; liver SUV): 0.178 ± 0.042 SUV; SUV at 24 h ([2]; liver SUV): 0.168 ± 0.056 SUV

What does the source list for `CC(=O)N[C@@H](CCCCNC(=O)CN1CCN(CC(=O)O)CCN(CC(=O)O)CC1)C(=O)N1CCC[C@H]1C(=O)N(C)[C@@H](CCCNC(=N)N)C(=O)N[C@@H](CCCNC(=N)N)C(=O)N1CCC[C@H]1C(=O)N[C@@H](Cc1ccc(O)cc1)C(=O)N[C@H](C(=O)N[C@@H](CC(C)C)C(=O)O)C(C)(C)C` [[^55Co] Co-NOTA-NT-20.3]?
SUV at 1 h ([2]; 1 ug, heart SUV): 0.033 ± 0.002 SUV; SUV at 4 h ([2]; 1 ug, heart SUV): 0.015 ± 0.002 SUV; SUV at 24 h ([2]; 1 ug, heart SUV): 0.004 ± 0.001 SUV
